One series addresses T1, Furin/SPC 1 (Homo sapiens, UniProt P09958).
T1 construct: expressed in transfected cells; host or cells: HEK293T
The experiment in a line: Western blot (anti-LAP) of pro TGF-β1 cleavage in HEK293T cells co-transfected with Furin/SPC 1. The format is cell-based. The note with it: HEK293T cell extracts, FIG. 5B. The source says:
To further investigate the role of emilin-1 on TGF-β processing, HEK293T cells were transfected with plasmids encoding pro TGF-β1, Furin/SPC 1 and EMI-domain, as shown in the scheme above FIG. 5B. Cell extracts were loaded on SDS-PAGE and detected by Western-blot with anti-LAP antibody.

The next series deals with T2, pro TGF-β1 processing (Homo sapiens, UniProt P01137).
T2 construct: Flag; expressed in transfected cells; host or cells: HEK293T (A6); mouse embryo fibroblasts (A8)
In words: Western blot of pro TGF-β1 conversion to LAP and mature TGF-β1 in transfected HEK293T cells. The format is cell-based. The note with it: HEK293T cotransfected; cell extracts anti-LAP, supernatants anti-TGF-β1; FIG. 4D. The text has this:
• The construct for emilin 1 expression was engineered in pCS2 vector (Rupp R. A. et al., 1994, Genes Dev 8, 1311-1323) (for a physical map of the vector, see the site faculty.washington.edu/rtmoon/pcs2+.html) as described (Zanetti M. et al., 2004, Mol Cell Biol 24, 638-650); the vector used for proTGF-β expression in MEF and HEK293T cells is pCDNA3.1 (Invitrogen). Vectors containing the coding sequence for human pro TGF-β are described in Young and Murphy-Ullrich, 2004 (Young and Murphy-Ullrich, 2004, J Biol Chem 279, 38032-38039). The human pro TGF-β cDNA sequence is reported in the data bank (NP_000660; protein 000651). • The vector for Furin/SPC 1 expression is pCDNA3.1 (Invitrogen) • p15 and CAGA 12 promoter fragments are described in Jonk L. J. et al., 1998, J Biol Chem 273, 21145-21152 […]. • Constructs containing Flag sequences are described in Young G. D and Murphy-Ullrich J E, 2004, J Biol Chem 279, 38032-38039. • Constructs containing the Flag epitope (e.g. Flag-EMI-domain-GPI) were prepared as described in Chubet R G et al. Biotechniques 1996; 20(1):136-141 and detected by anti-Flag antibody (Kodak Inc.). • Constructs containing the GPI anchor were prepared as described in the Manual “Current Protocols in Cell Biology” Howard R. Petty Wayne State University, Detroit, Mich.; Juan S. Bonifacino, Mary Dasso, Joe B. Harford, Jennifer Lippincott-Schwartz, and Kenneth M. Yamada (eds.), Copyright C 2003 John Wiley & Sons, Inc. (GPI-anchor). In the construct Flag-EMI domain-GPI, the Flag sequence was inserted at the N-terminus after the signal peptide, while the GPI-anchor sequence was placed at the COOH-terminal end. • The construct emilin 1-KDEL was obtained by inserting the KDEL coding sequence described by Munro S., and Pelham, H. R., 1987, Cell 48, 899-907 upstream the emilin 1 STOP codon. • The construct containing the type II TGF-β receptor with HA epitope was described in Wrana J. L. et al., 1994, Nature 370, 341-347. • supplier of the drugs used: SP600125 (Calbiochem), SB431542 (Tocris). • Purified recombinant LAP and TGF-β1 proteins were purchased from (R&D Systems)
To verify whether emilin or its EMI domain inhibit TGF-β or its precursor, HEK293T cells were cotransfected with plasmids driving the expression of pro TGF-β1 (fused to the FLAG-domain, even though the antibody used were directed at LAP and TGF-β proteins) and emilin-1 (or EMI-domain). […] The anti-Flag antibody used was obtained from Kodak Inc; for the preparation of Flag constructs, see Younjg and Murphy-Ullrich (Young and Murphy-Ullrich, 2004).
As reported in the summary scheme above FIG. 5A, HEK293T cells were transfected with the plasmid encoding pro TGF-β1 (lane 1) and cotransfected with emilin-1 (lane 3) or treated with decanoyl-RVKR-CMK peptide (Decanoyl-Arg-Val-Lys-Arg-chloromethylketone, Alexis Corporation, Lausen, Switzerland) (lane 2) at a concentration of 100 μM. The peptide is an irreversible and competitive inhibitor of furin proprotein convertase and of other SPC family members (Proprotein Convertase); in addition, it inhibits pro-MMP2 dependent furin activation. The supernatant was then loaded on SDS-PAGE and detected by Western-blot with anti-TGF-β1 antibody. […] An increase of the precursor band in lanes 2 and 3 is […] to the decrease of TGF-β. Therefore it can be concluded that this assay detects an effect of emilin-1 on TGF-β1 processing that is similar to the effect of Furin inhibitors.

T1 sequence (P09958 108-794): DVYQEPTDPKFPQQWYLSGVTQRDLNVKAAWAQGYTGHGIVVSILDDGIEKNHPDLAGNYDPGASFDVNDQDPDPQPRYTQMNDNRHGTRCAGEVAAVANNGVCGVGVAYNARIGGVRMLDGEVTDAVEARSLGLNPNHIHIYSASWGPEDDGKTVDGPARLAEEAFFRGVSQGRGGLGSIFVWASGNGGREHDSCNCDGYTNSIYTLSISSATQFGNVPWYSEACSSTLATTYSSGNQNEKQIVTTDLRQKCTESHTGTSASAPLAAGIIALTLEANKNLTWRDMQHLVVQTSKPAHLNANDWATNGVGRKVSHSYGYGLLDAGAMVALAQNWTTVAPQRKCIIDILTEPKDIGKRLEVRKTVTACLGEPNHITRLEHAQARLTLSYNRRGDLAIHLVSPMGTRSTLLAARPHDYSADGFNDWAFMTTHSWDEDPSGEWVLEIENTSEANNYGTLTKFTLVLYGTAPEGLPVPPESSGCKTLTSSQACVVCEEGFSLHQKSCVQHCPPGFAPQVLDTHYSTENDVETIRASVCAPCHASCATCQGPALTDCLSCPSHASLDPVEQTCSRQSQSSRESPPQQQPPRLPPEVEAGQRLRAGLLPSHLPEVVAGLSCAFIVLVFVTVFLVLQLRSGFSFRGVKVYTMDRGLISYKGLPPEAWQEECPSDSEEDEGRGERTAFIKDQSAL
T2 sequence (P01137 30-390): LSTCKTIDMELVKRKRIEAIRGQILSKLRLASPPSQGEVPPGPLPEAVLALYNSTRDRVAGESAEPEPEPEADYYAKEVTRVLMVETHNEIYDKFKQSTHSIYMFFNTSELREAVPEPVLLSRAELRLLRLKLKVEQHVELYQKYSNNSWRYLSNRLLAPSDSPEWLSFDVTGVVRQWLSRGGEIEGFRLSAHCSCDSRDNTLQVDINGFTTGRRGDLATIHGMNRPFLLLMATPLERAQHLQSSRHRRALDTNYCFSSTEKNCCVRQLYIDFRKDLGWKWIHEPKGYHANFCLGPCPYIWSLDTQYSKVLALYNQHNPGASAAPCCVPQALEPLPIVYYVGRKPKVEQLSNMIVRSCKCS

B1: EMI domain: cysteine-rich domain of emilin-1, residues 55-131, SEQ ID NO 2; in some experiments Flag-tagged and GPI-anchored (protein)
chain: RHRNWCAYVVTRTVSCVLEDGVETYVKYQPCAWGQPQCPQSIMYRRFLRPRYRVAYKTVTDMEWRCCQGYGGDDCAE
modifications: sometimes Flag tag and GPI anchor; homo sapiens
notes: in some experiments Flag-tagged and GPI-anchored
As to B1, the “Furin-induced proteolytic cleavage product of pro TGF-β1” value in the series with Furin/SPC 1 is listed as “blocks the effect of Furin”. Besides, in the series with pro TGF-β1 processing, the “Conversion of pro TGF-β1 to LAP and mature TGF-β1 (band intensity)” value is on record as “inhibit the conversion of pro TGF-β1”.

The values above are taken from US20090036382A1, “TGF-Beta Modulators and Use Thereof” (Universita' Degli Studi Di Padova, priority 2006, published 2009).
